Luminescence ratio (HaloTag vector to pCNeo control) and response data for three substances are collected here from article PMC5862564.

Where “and” joins values, the source holds several entries; their conditions need not be identical. Identical values can stand only once.

For assay [1], the target named is HaloTag-FYB (human) (UniProt O15117). Briefly: pull-down + split reporter (BiFC, NanoBiT); HaloTag-fused hook captured from HEK293T lysate on HaloLink resin, 6 washes with PBS 0.1% Tween; luminescence of the co-expressed GPCA pair on the resin; ratio of cells with the HaloTag vector to cells with the pCNeo vector expressing the same protein.
The target of assay [2] is SKAP2N1 (SKAP2 with Gaussia princeps luciferase fragment 1 at its N-terminal end) (UniProt O75563). Briefly: GPCA. The following applies: read off a plot.
For assay [3], the target named is FYB fused N-terminally to Gaussia princeps luciferase fragment 1, O15117-3. Briefly: GPCA. The settings on record: read off a plot.
Sequence of FYB fused N-terminally to Gaussia princeps luciferase fragment 1, O15117-3 (O15117 other isoform, or with tags, fused parts or gaps): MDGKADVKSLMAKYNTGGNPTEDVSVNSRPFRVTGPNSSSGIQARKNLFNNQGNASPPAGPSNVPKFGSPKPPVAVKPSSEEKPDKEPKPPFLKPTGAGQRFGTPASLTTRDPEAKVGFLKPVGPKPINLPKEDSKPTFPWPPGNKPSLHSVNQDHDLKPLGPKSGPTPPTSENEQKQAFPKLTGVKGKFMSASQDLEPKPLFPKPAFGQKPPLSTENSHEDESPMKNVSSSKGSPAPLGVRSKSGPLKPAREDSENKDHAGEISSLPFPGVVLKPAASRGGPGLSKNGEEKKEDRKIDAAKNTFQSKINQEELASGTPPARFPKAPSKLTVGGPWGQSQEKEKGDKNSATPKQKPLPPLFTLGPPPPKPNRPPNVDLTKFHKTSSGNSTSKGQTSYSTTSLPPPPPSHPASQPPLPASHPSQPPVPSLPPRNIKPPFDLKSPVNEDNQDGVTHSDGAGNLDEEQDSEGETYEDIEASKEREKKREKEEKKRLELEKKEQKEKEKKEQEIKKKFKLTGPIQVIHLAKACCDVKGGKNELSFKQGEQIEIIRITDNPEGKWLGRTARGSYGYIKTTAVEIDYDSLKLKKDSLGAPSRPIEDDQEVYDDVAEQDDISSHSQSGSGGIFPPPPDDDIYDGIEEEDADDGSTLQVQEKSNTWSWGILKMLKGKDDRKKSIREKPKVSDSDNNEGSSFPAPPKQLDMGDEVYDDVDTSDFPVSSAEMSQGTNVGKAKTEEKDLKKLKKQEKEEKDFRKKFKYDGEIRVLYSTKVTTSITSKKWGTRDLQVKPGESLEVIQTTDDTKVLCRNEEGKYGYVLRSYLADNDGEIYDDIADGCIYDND

Regarding “SKAP2-DIMPH hetero-dimer of hemi-luciferase-fused DIMPH and hemi-luciferase-fused SKAP2 (from UniProt O75563 1-222; O75563 1-359) (complex)”, the luminescence ratio (HaloTag vector to pCNeo control) in assay [1] is 125 and 308 and 160.
For “SKAP2 homo-dimer of two hemi-luciferase-fused SKAP2 (the pair generating the luciferase signal) (from UniProt O75563 1-359) (complex)”, the luminescence ratio (HaloTag vector to pCNeo control) in assay [1] is 49.1 and 135 and 51.8.
Turning to SKAP2 V24D; F27D; V28E, the response amounted to 4.9 NLR in assay [2] (with A23187, parent: est. 320); 2.2 NLR in assay [2] (without A23187 (NT), parent: est. 240); 2000 NLR in assay [3] (HCK-P249A 0 ng, with A23187, parent: est. 850); 1000 NLR in assay [3] (HCK-P249A 0 ng, without A23187, parent: est. 280); 2500 NLR in assay [3] (HCK-P249A 25 ng, with A23187, parent: est. 1000); 570 NLR in assay [3] (HCK-P249A 25 ng, without A23187, parent: est. 190). The response in assay [3] (HCK-P249A 50 ng, with A23187, parent: est. 730) stood at 1900 NLR; in assay [3] (HCK-P249A 50 ng, without A23187, parent: est. 540), 1400 NLR; in assay [3] (HCK-P249A 100 ng, with A23187, parent: est. 480), 1300 NLR; in assay [3] (HCK-P249A 100 ng, without A23187, parent: est. 570) it was 1500 NLR; in assay [3] (with A23187, parent: est. 760), 1500 NLR; in assay [3] (without A23187 (NT), parent: est. 390), 540 NLR.
